Tested on: Saccharomyces cerevisiae
Assay: transcriptional activation domain activity (GFP:mCherry ratio, weighted mean of sorted bins, harmonized to initial dataset scale) (arbitrary fluorescence ratio units); higher = stronger transcriptional activation
Conditions: beta-estradiol 1 µM; induction time 4 h
Procedure, shortened: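 The listed activation activity is a read-weighted mean of bin median fluorescence, averaged across barcodes and linearly mapped onto the initial dataset scale. Barcoded tiles, fused to an estradiol-inducible synthetic transcription factor, were integrated at URA3 in yeast diploids bearing a GFP reporter. Cells were held 4 hours at 30 °C in SC with 1 uM beta-estradiol, sorted into 8 GFP:mCherry bins, and sequenced, and tiles with fewer than 50 reads were excluded.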

Going from “MGVLLVDFLTHWILFLFCSWFMLFSFGRFFGFSGSLLVRFLPDSDLLMFLVLL” to “VTRHHEFLRVHLNEKGEKLLYITHRLDKNGFDVRVFLVAASGFLTDSYILFVT”, the “transcriptional activation domain activity” value falls from 70600 to 39700.

First: MPEPAAAAAPRQRAFRTKSRLGCLQCKRRHVKCDERRPRCGRCVAAGSDCSLQ
Second: TAAPYHKLAYHPALSPKISLGFWPFQHILTFLDYKEYVLQWTLLVTVQIPWFN
The “transcriptional activation domain activity” value of the first is lower: 17400 for the first, 64700 for the second.

Going from “MCSCVIRRHPLAKPKMGSFQSIGALTCSSCSSWKMCILLFLILVWFTFRLTSL” to “SGDAVMKDAVEEAGAAAAEAKPEPEPKPEPKPKRKAPAKKAKIVAAVSAAIAN”, the “transcriptional activation domain activity” value rises from 21400 to 26600.

First: LRWMLRCAFALTRYGTTAFLLFFVYVVFLLRVYLLTDRRRSLLYCLTATFVVE
Second: MLCIWLLSLYVWFVQEKGAYKPVLSSSFFFWLILQVYVHRYWLPFPSLTFLYH
The “transcriptional activation domain activity” value of the first is lower: 40100 for the first, 55500 for the second.

First: LLLHVLIALRFWRFFGYSIGMVCGILLELVGYCGKVQLSHNRDNKDGYIIGLT
Second: CVGFANYCHFIRFLVYVGLGAIYLMVLLGCRLSSILYHPASATEWVLLGLNLF
The “transcriptional activation domain activity” value of the first is lower: 50800 for the first, 63000 for the second.

Going from “ARGEKNPPMTQKDLATKVNEKPSVINDYESGRAVPDQKVLAKLERALGVKLRG” to “GAAAASGTKPKPTAAGGAAGAAAASGAKPKPTAAGAAGAAAASGAKPKPTGAA”, the “transcriptional activation domain activity” value falls from 50400 to 15300.

Going from “VLFSQRRRWINSTVHNLLELVILPELCGFCCFSMRFFVFIDLLGTILTYLVVV” to “MYCMRYFAPLFLLPFPDAPPFFVVLSLISFFLHQKPCIYCVFLLLALFSSTCY”, the “transcriptional activation domain activity” value rises from 61100 to 61400.

Compared with “LPTNPTTHPLLFSAIHFFIYNVGDLLGRYICSFSCFIIWSQPMLLGLSLARVV”, “GKPVIKISSFAPKLTVISSKQRPRRLSIKGSDGKDYQFLLKGHEDLRQDERVM” is lower in “transcriptional activation domain activity” value: 77600 for the first, 58400 for the second.

First: APTAARVVPSACPSSVTSRATATATMTSPGGGSRSSSRTAAAAAPTGAAVARC
Second: EIKGDLTMTNLVTNFGFSIRWTHNLFEHLSIDWVGRVITIYEDKICLWNHLRF
The “transcriptional activation domain activity” value of the first is higher: 48400 for the first, 43500 for the second.

Going from “MAMGYMRFCALAISILLFREGKELTQRGSCGCLIYVCVRLEVGYYRLVFLIGY” to “LPHFPIIHPSLLDLDLDSLQRYTNEDGYDDAENAQLFDRLSQGTDKEYDYEHY”, the “transcriptional activation domain activity” value rises from 54700 to 71500.

Compared with “EVKDKVWFLEGVTQVLPQDVDEYSGGGGMHMMLDFLGGGLPSMTTTNFSDFSL”, “EYVRETTPEKEGGGRRRQKREDVTSGEEDAPDAVEKGKKRKRSAAGGAGAGKK” is lower in “transcriptional activation domain activity” value: 113000 for the first, 48300 for the second.

Going from “SPMGSGSDEEEEERRRKRRKEKKRSKKSKRERSGSLSGSGSEGGGGKRKRHQD” to “PKEAVASTPEEPAASEPVAAPALAAAEPVAAAEAPAAAPVPETKAEEVSIQHL”, the “transcriptional activation domain activity” value falls from 36000 to 23600.

Compared with “SPVYLICMGTVLLYVGVIIVMLIERIAYFRPGDGLCVIGLKPVASLSLLCFDL”, “FGSWGRGLCPLVFREAGWLELWGCVCVGGTLVWCLPYGILPMSYWRIWGLLRW” is higher in “transcriptional activation domain activity” value: 37200 for the first, 74600 for the second.

Compared with “LGILLLLFDWRVLFNAAQMSCALHESCIALSVMKARNQEWKWWCLGSTYYVYE”, “GFSCHTRILGRPIIISTSTSYIGILLDLVRTFYFLYLLLRILLKVFLAVWCFL” is higher in “transcriptional activation domain activity” value: 44100 for the first, 63700 for the second.

Going from “FMHYYRRDRRHLKFLVLLVLFLSTCHFGLYVLTIFRVFVTMHSVVIPSHQVPW” to “MCFFSFFLFLLRIWLLFCLLLSIPLGFRMRSWGVPTAFVTILHFSLVMHLITV”, the “transcriptional activation domain activity” value falls from 63000 to 59900.

First: PSGIIVLVICTLGLLCCTIMIILIFYFRYFKPIMSSSPIFCYLQLVGISMAYI
Second: VRTARQQLMEAAMKTFQLAVGPSEYLPNLALGYQYMACLRWLTHFNIFFHIPL
The “transcriptional activation domain activity” value of the first is lower: 46000 for the first, 71400 for the second.

First: CPSFPSSFFVWVFEPRVAVPNLLGIIYLFCLVSHLPSSLFILSGTLLPLIVCL
Second: DSSAETGPGEDPSLVLPGLHMTLMRRFALKSKDRDRVSVEILGLLIRVLGVLG
The “transcriptional activation domain activity” value of the first is higher: 61300 for the first, 59800 for the second.

Compared with “NWYWLATTMYFLYGESVVYYLKHIVLVDKVLLPLATHHRFISFILYVFGFVFF”, “FDIITASLENSYQTTLTEKGSQVMEKNMDQLDSVHNLNDDDLQQLLEDLGNID” is higher in “transcriptional activation domain activity” value: 46100 for the first, 111000 for the second.

Compared with “KKAKAGDEDEEGGADKASPKKGAKRGRKQVEDEDEDESEEVQPKAKRAKKAVV”, “LSSSSSVQTSAATTVVLVSGSDDKLVKAAGDALRARLGVKGGGKGQKWSGKFT” is lower in “transcriptional activation domain activity” value: 24800 for the first, 17600 for the second.

Compared with “MRLLAYGLMSSGVLLAHVVHIWRQRGFFFATCIGLTNHNFGLLVIMNFCLFCS”, “EEGERKGEGGKEKWERDAVGNGGRGRQGGEQEEEREEGAGGRGKGGGGRSRGK” is lower in “transcriptional activation domain activity” value: 56000 for the first, 45900 for the second.

First: ELGSFRLLSFRVWCLLGTGSFWGLLYTAIAKMDGYTFGFLLQAHHVLKLLLVS
Second: STLVFLKLYSSLMLGTCLTSILCFSLPDFFPGKRGFAIGLCLYHSICSTVLFQ
The “transcriptional activation domain activity” value of the first is lower: 54400 for the first, 63900 for the second.

First: WKPDIYTCVMRMLLDRLHSALGSLHARSIIRKIRILVALAGNVAYRGYPLQMT
Second: MILARMLHIYIYKEIVDLTNVCIKCIKIISSEVRRVVLFNLDQTYETIPYIVE
The “transcriptional activation domain activity” value of the first is lower: 48900 for the first, 66600 for the second.

First: DRFQLKKFGGYQVEFINYDYGVLQDVMLFSLQRHVNCQEVGVKMLWTIIISEW
Second: CMLRFVIWLCSKCVPYRSGVWEEFKFLLDHPRRCFTLLFPSSANWWLFWVLIL
The “transcriptional activation domain activity” value of the first is lower: 49000 for the first, 59700 for the second.

Going from “QLMTGPVLLDREVQTGHSGSLLVLVMSCWSLECFERRQALRKTVLALLGPLRE” to “TSTTPAGAPPADKPAGSLFGVKPAAAGSSSGGLFGQASNTSVAPSSIATTTAS”, the “transcriptional activation domain activity” value falls from 70700 to 28400.

First: WARNARKNKSTEEASAQEQRRGAQVIVIHPGSRFLRIGKASEVSPVTVLNVVA
Second: LMVDEPFEHRLFFLLLFQEGNVCQAQSFQLSGFECMCMVSSQFFFLVWVLYFM
The “transcriptional activation domain activity” value of the first is higher: 55600 for the first, 45600 for the second.

Compared with “FLLLMFQGLDIFTPVIRVLHFRICLLLLLLIILLAVPLLFSYIIFSRPFLSLV”, “PLEKLMCLRTSLSLLSAAADKYMQENRLTVFHTSVASDDLILLLACALTQTHL” is higher in “transcriptional activation domain activity” value: 43900 for the first, 50200 for the second.

Compared with “PLFRHQDSLLIVASNIGLVGMISILVYCTYAFSLQSVVKFYFIPYVLVNHWIV”, “KIHLLPTGVHQWNLKVKDLIHCLKLFHYAEIMYALSIVPLKAAIIFQCLRVFV” is higher in “transcriptional activation domain activity” value: 45200 for the first, 47200 for the second.

Going from “SNDGEDENGDGVSNEKSGRKKGKGRRKRGKDQAQVKGDQEPQDGEAGGEGGAE” to “MARLHIGQLCSRSFFYALLVLSTWSSKLVYLWPHLTSSLPPLLIVLYIPTFLL”, the “transcriptional activation domain activity” value rises from 21600 to 72900.

Compared with “MPLFCSISPSFHESVHFWFFFFFFLSLTLFPSFRLVSYFCTFFLFLNWVNRGF”, “GGVSRIRQGERQGAGAGGAEGKSRKGAAAGRGKGGEQGGERGGSREGKGGGAG” is lower in “transcriptional activation domain activity” value: 44800 for the first, 37500 for the second.

Compared with “WKKTIQNKIKDSLTLSSKEKELLHLIEHGAEQTTENSNLFYDIFEEIIDSLPS”, “IRQLFGNYVLLYFFPWGFGCGFLPVLFPVQTCRIYHYLLFYFFFLSPFFFSIP” is lower in “transcriptional activation domain activity” value: 112000 for the first, 36700 for the second.

Going from “MQCSISYWRQNQVTDNFALFYIIPCFLSILLYYSSFQSYYEQRAWRLILFFYF” to “PGYVVQYKNSLIGKHFKMLQQLGVFYLHDLCAPLILDLWKATGELGAYLWFPE”, the “transcriptional activation domain activity” value falls from 56700 to 40900.

Going from “AFRWIAAFYGLTLATHFTGTVILVSHIAHHVVQAKCILGHRGGPYFYIMRVLV” to “VWIVIYISLSYLFSGVLESVILIYSWIRGFPVIQLLFPKCQVYMNGFLVLFVI”, the “transcriptional activation domain activity” value falls from 61400 to 61200.

First: MLLMPRLCPVYLIHFCMIYALHLVAPHLSFPLISSGFLIIFTLHYTSTLLTCL
Second: VLLQNLCRMVITRLGDWTLFKAFVLCCCLYRLSFFHDLFLFLYTFSFPLLCFT
The “transcriptional activation domain activity” value of the first is lower: 49400 for the first, 57100 for the second.

Going from “CNVLFYLELVRALVLLHRWDLNTWMLQYSTKTMPPIQPTPLDDFVKYITTFPG” to “DAPAQPEPADDGEEAEEVDEPKGKKGKGGGKKGGGKGKGGKGKEKKADKAAAE”, the “transcriptional activation domain activity” value falls from 42800 to 29400.

First: AYTATNVGIPFNRAMDHLHRMMSRFEYCIFEGTSLPVFGIIGLQVRCQWLGCS
Second: IMYSVIVSLLLFLFLLVLLRRYLVSLYYFTSLFLSPRLCARIAIVFRICLLYI
The “transcriptional activation domain activity” value of the first is higher: 73700 for the first, 50300 for the second.

Compared with “RSLQLSWSILLRFFKEHFCMDRLSLTIVDLGTLGSPLIRSERNGYLRRFFQVF”, “MMRSAANMGLISQPSNLLLVVQPCPPLLLCVLFPPPLSSYCLLLSLSLLLFFF” is lower in “transcriptional activation domain activity” value: 46700 for the first, 38500 for the second.

Going from “ESKNKAEEETEEGEGARGEEEEEEKEEQGESDNEDANSAEADKTKSKQGKKQR” to “IIAAKPEVLVKEEAAVKEEVPKAAAAKPKAKGKGKGKGKGKKVAEKKPEPVAE”, the “transcriptional activation domain activity” value falls from 31900 to 22400.

Compared with “QSPSISMEPVSINETGSAYTTTNTALNDIDIPFSINELNELYKQVSSHNSHSQ”, “ARFNLYLLSWLHVLSAKSASLGSSKAWWIRPAEIAMMSCYWYIFGYLLLWCTL” is lower in “transcriptional activation domain activity” value: 84100 for the first, 65800 for the second.

First: RVVVVTDAFQKMDHFYWSLQAWLMYRFDALSACSTFAMTLLALYDDLSPGLTA
Second: NSSVYETVTRNLHDDLLGGSLNLKVILEMLLAHVIVNPSLVLEPAASLLRRNG
The “transcriptional activation domain activity” value of the first is higher: 83700 for the first, 58200 for the second.

Going from “MVKGRGRGGQVLFLFLFLLLFFLFLFLSLFLFILFFLALFFWTFFVLFCFVWG” to “MDPEQATDAKPPKPPVVRGARACTVCRAAKMKCVGAEDGQKPCQRCKRANVEC”, the “transcriptional activation domain activity” value falls from 66200 to 53000.

Compared with “VPRKLTASIHHPVEGLFYGTYWVSISLILNCAHAYGVPSSGPWLVRALEVCFW”, “LLRQQLVYTNHIYLYYFAIISNTLIRFIWILYIPARGPDIILRTFIAALFEML” is lower in “transcriptional activation domain activity” value: 64800 for the first, 54200 for the second.

For “QLMESVSELDLPPLTLDEPPQAIKFNLNLFNNDPSGQQQQQQQQQQNSTSSTI”, the “transcriptional activation domain activity” value was 29000.

Source: the supplement of paper PMC12636428
